Source: a protein production outcome set (Wang et al. 2014)

Test: label from the status in PepcDB records

Sequence	protein production
MSEAKWLSLLGLAARARQLLTGEEQVVKAVQNGQVTLVILSSDAGIHTKKKLLDKCGSYQIPVKVVGNRQMLGRAIGKHERVVIGVKDAGFSRKLAALIDE	not failed
MSEALSDSGLPPVQRVVTGHDAHGRAVFKSEDVTPTRMIPSGDASFLLVWTTATVPADNNDETDGRQREAGLTLDGGSVIRVVDMLPGKESPMHRTNSIDYGIVLEGEIELELDDGAKRTVRQGGIIVQRGTNHLWRNTTDKPCRIAFILIEAPAYLHNGQPLPEDKPDHK	not failed
MSEAPHLTFDLDTPGVSTGHLVVPKGADCEALSLPVFSCNRGEGPSLLITGGNHGNELQGPILARRLVKWLPEAQRCGRIIIVPEINPLAVQAWTRNTPIDGKNLNRVFPGRSDGSVSERIADAISRLLLPVVDTVLDLHSFGPTWDCAPSIISHPIADIDQMTKTVSISKAFKLPVTLLWEHNETDGMFDTLVHRQGKTFICTEFGGGVVSAEALTIYEAGVRNGLIALGLVKGKAEYPTFRQQKTGQTLETTSSDQLKSPSPGIFEPRCSVMDEVEQGDVVGVLHPMGSLSAASIDIRAQSKSTVFAIRSAMYVQGNEEVAILARPLAR	not failed
MSEEQDKQRNTRKKENNRLLTKAAIIGVVAGILGGGIAYGGLSAANLNSNTSSSTASSSSSNTGENGSVTTSSSGTTKVNKSKTTSGTMTSAYKKVQNAVVSVLNYKYTSSSSSSSDIYSMFGYGDSDSSDSSSSKKSLTLYSEGSGVIYTTANGKGYIVTNNHVISGAAKVKVILASGKTIAAKVVGKDSTSDLAVLSIDSKYVTQTASFGDSRSLLSGQTVIAIGSPEGSEYASTVTQGIISSPSRTITYNSNQMTVIQTDAAINSGNSGGPLVNSDGQVIGINSMKLSSSSSGDSVEGMGFAIPSNEVVTIVNQLVKKGKITRPQLGIKVAAIADLNSYYKKQLGISTSLKKGLYVASVTSGSAAASAGIKKGDVITAADGKTVNDVATLHSILYSHNVGDKVKITVNRNGKTMTFTVTLQASN	failed
MSEGFSSSSIQELYQSLKEITNNADVELFEDRITKLDFESTDEPKHANDIIKDRFLRPSNALPWSLLDMVQDVPHTSSPEDCSGKLDYKELLKVPDPINRTSYQFKRTGLEGKISGYKEEVDLKEVANANASNSLSITRSINHNQNSVRGSTAQLPFTPGGIPMKSVKTDSEQNGSSTMANATKLLHKDGQGLFDIPEGMNRGIKPMDSPAENEDQNGQFKELKQLNEIDNELDIRIEANEAKLKEEEKSAKSISEEIMEEATEETTADNADDAEIDELLPIGIDFGRTKPVSKSVPVKKEWAHVVDLNHKIENFDELIPNPARSWPFELDTFQKEAVYHLEQGDSVFVAAHTSAGKTVVAEYAIAMAHRNMTKTIYTSPIKALSNQKFRDFKETFDDVNIGLITGDVQINPDANCLIMTTEILRSMLYRGADLIRDVEFVIFDEVHYVNDQDRGVVWEEVIIMLPQHVKFILLSATVPNTYEFANWIGRTKQKNIYVISTPKRPVPLEINIWAKKELIPVINQNSEFLEANFRKHKEILNGESAKGAPSKTDNGRGGSTARGGRGGSNTRDGRGGRGNSTRGGANRGGSRGAGAIGSNKRKFFTQDGPSKKTWPEIVNYLRKRELLPMVVFVFSKKRCEEYADWLEGINFCNNKEKSQIHMFIEKSITRLKKEDRDLPQILKTRSLLERGIAVHHGGLLPIVKELIEILFSKGFIKVLFATETFAMGLNLPTRTVIFSSIRKHDGNGLRELTPGEFTQMAGRAGRRGLDSTGTVIVMAYNSPLSIATFKEVTMGVPTRLQSQFRLTYNMILNLLRIEALRVEEMIKYSFSENAKETLQPEHEKQIKVLQEELQTIEYKSCEICDNDIEKFLELMLAYKEATVNLMQEMVKSPSILHILKEGRLVAFRDPNDCLKLGFVFKVSLKDAVCVIMTFTKPYKLPNGEPNHLIYFPKADGYRRRNFPKFQKTDFYMEEVPVTAIEVITKRKFAAPLGKVIKKDVAALNEFNAETNNILDGKTLKEAINIEKQGLKIHQILLDRTNIRDEIFKLKSIKCPNLSQHIVPKFKAHVIKKKIEELYHLMSDQNLSLLPDYEKRLAVLKDTEFIDQNHNVLLKGRVACEINSGYELVLTELILDNFLGSFEPEEIVALLSVFVYEGKTREEEPPIVTPRLAKGKQRIEEIYKKMLCVFNTHQIPLTQDEAEFLDRKRFAMMNVVYEWARGLSFKEIMEMSPEAEGTVVRVITWLDEICREVKTASIIIGNSTLHMKMSRAQELIKRDIVFAASLYL	failed
MSEKAKKGFKMPSSYTVLLIIIAIMAVLTWFIPAGAFIEGIYETQPQNPQGIWDVLMAPIRAMLGTHPEEGSLIKETSAAIDVAFFILMVGGFLGIVNKTGALDVGIASIVKKYKGREKMLILVLMPLFALGGTTYGMGEETMAFYPLLVPVMMAVGFDSLTGVAIILLGSQIGCLASTLNPFATGIASATAGVGTGDGIVLRLIFWVTLTALSTWFVYRYADKIQKDPTKSLVYSTRKEDLKHFNVEESSSVESTLSSKQKSVLFLFVLTFILMVLSFIPWTDLGVTIFDDFNTWLTGLPVIGNIVGSSTSALGTWYFPEGAMLFAFMGILIGVIYGLKEDKIISSFMNGAADLLSVALIVAIARGIQVIMNDGMITDTILNWGKEGLSGLSSQVFIVVTYIFYLPMSFLIPSSSGLASATMGIMAPLGEFVNVRPSLIITAYQSASGVLNLIAPTSGIVMGALALGRINIGTWWKFMGKLVVAIIVVTIALLLLGTFLPFL	failed
MSEKMRRIVEAAGGIVWRWKAGSDIANDPAIASSKSAQEQLDSIEVCIVHRPKYDDWSWPKGKLEQNETHRHAAVREIGEETGSPVKLGPYLCEVEYPLSEEGKKTRHSHDCTADTKHTLYWMAQPISADDAEHLLDAFGPVHRADVGEINDIVWVSVREARKILSHSTDKDTLAVFVDRVQEGAATAQNLLIVRHAKAESRKSWKGTDANRPITPKGAAMAFALNRELACFNPTRLATSPWLRCQETLQVLSWQTERPMEHINTLTEDAFAEHPAVSWLAFREQITQTLNSRETTAICMHRPVIGGMYDHLRGLCARKQLAKQLIAKSPYMPTGTAMSLFIIDTPQGPSIIDIQKVSPIVY	failed
MSELNKEMTLLPPPELVQYVGGDFKKVGKEFLKHFIQIGALKSNEKVLDVGCGVGRMAVPLMNYLNDDGAYYGFDLFKDGITWCQNNISTMRNNFHFEHVDIYNQFYNPEGKEDASQYRFPYEDGTFDFIFLTSVFTHLLPKELEHYVSEIVRVLKKDGRCFITFFLINPESSYYLNAGQSTLGFYHRIENCYVVNKDIPNFAVAYPETDICNLLNKYGLEIINKPHYGLWCGRHEYTSYQDIVLTKKSFLEHHHHHH	not failed
MSELQILIFNAAVFSILAVYHYWKNRKLNIAFYILAYYSICAWGALLYHEHELFHYMRGRETYSIIPFLYLIPVIFLFAYPIIRYDNTRITRIETLNSNFFINLVWILLFIQIVLYIILFPSFLKAILSSNIGDYRNDTYDESEIVQFPNYFFNILCRLYMGARNVVILIAAYGLLVIKTHRKLLKIFLVTSLCFPVYMFTAYASRAVMIMTFFFLVFIFVFLSVFMNVGLKKKIVSYLILILVPISSAFILISNSRFGNLATYMFYRYLGESFNNYNTHFFYELKGNTWGEAYFVFFRKLMGISSNFKTTREKWEWLDNITGVDTHVFYTFVGGLNIEFGFVGTIVIGLLLSFFMVKKMRPYNVLTLPKFIALGMLAYTLINGVFFFVLQGDWGNLEILFTLFFCFLFSKYRTRKYINK	failed
MSENENSQEKNELLDALNSVEEVNVGDVVKGEVLAIDDDKQVIVGIQGTGVEGVVPLKELSTQRVDDVNEAAKVGDVLDLVVISRIGSDKENGSYLLSHRRLEARKVWDDVEKEYEAGHTIKAPVTQVVKGGLVVDAGVRGFIPASMIDDHYVEDLNAYKGQELELKIIEIEPSENRLILSHRAVVEKQREAQREEALKTLQAGDVVEGKVARLTNFGAFVDLGGIDGLVHVSEISYERVEKPADVLKVGQEVTVKILSVDADRERVSLSIKATLPEPWDGIEEKAPQGAVLDGKVKRLTSFGAFVEVFPGVEGLVHISQISHQHIATPNDVLKVGQEIKVKVLDVRPDEKRLALSIKALEEKPQTADDDNESQPERRSNNNRRRNNNRDNRTASERSTANAPEESTGFTLGDLIGDELKNAESNNDENLEHHHHHH	failed
MSENEPAQMIEGRYRIVRNIAEGGMATVYEAIDERLGRTVAIKVMHTQLAKGPHREQFVERFRREANSAASIANPHIVQVYDTGEFNGLDFLVMEYVHGVNLRHEMNAQGTFSVRETLRVVAETLDGLASAHRAGVVHRDIKPENILINDRGHVQITDFGLAKAASQATLSSTGMLLGTAAYLAPEMIENNQATAQGDLYSVGIMAWEMLTGKVPFDSDNPVTLVFKHVHEDVPSVATVCQGIDPSVAAFIAHLTARQVDVRPTDGAAAAEELSQLAAKLPLEAWQYRLHAEPIGGDHTDATAAALVGNIAEQAPLTGVPAGAATFEPSVPAFLADDVASNTADTGGAADVNPPAPPVAPTTALDSSTPADASAPHKTQIMAQSGSETQVLPQAGDAFTRAPALSDEPDVASNGTGPKKQRSKNRFIVLVIVLVLAAIGGTAGWWWFAGPGSYWSVPKPDDVTCDANAGTECSLTGADWATYESTLKAFGIPYKTHEEYSDDVAEGKIISSSVNKTKAVVNSHISKRANQELTVVVSKGVRMATIPKDILDANSANGKNPLNALKKAGFDNVKHDESKDEYSMDTPQGVALTISPDPGTTAKHNDEVTITLSKGPMPVTMPDIVGKTQYEMQAALGELKLTANVTEQYDDKVEAGQVISASQEAGAQLKWGDSVDVVISKGPEMATIPSGLVGKQESAVTKTLESLGFKVKADKVLGGLFGTVRTVKSGDTDLSNGGKTRLRDANGNPTVITLTIV	failed
MSENTKVEAKRVFIGAGCNRVVNNVSWGASGLVSFGAQNAVAVFCPKTAQILTTLPGHKASVNCTHWLPTSKFAFKAKKLDRQYLLSGDSDGIIILWELSTLNNDQQWRHVLQLPLSHKKGVTCITAYMVSETDAMFASASSDGVVNVWDVSFPSQPSEECKVVCLDSICVDTKAIVTLSLAELPQNPGRFALALGGLDNKIKLYSGERTGKFTSVCELKGHTDWIRSLDFSLPLHTTEEIPNSIMLVSSSQDKVIRIWKLVLVGDVGSWRREITLASYIEGPVFVSGTFTYQISVESVLIGHEDWVYSVEWQPPVIDFIDGRLVNHQPLSILSASMDKTMMIWRPEKKTGVWVNVVCVGELSHCALGFYGGHWSPNSLSILAHGYGGAFHLWRNVSSSKESENWQMQKVPSGHFAAVTDVTWARTGEYLLSVSQDQTTRVFSAWKNDEGNEAEDEHWHELARPQVHGHDINCVAMVQGKGNHRFVSGAEEKVVRVFEAPLSFLKTLNHTCAGGEGSFPEDLQADVQVLGANMSALGLSQKPIYLHSSSEPLERNGGGEGLDTFETVPEAAPAELKEPPIEDQLAFHTLWPESHKLYGHGNELFSLCSDHKGNLVASSCKAQSASMAEIWLWEVGTWKAVGRLQSHSLTVTHLEFSYDDTLLLSVSRDRHFSVFSIQRTDNGEVSHKLMAKVEAHKRIIWACSWNPFGHQFATSSRDKTVKIWSVENDARIKQILVLPPFGSSVTAVAWTGLDRNEKSGCVAVGMESGLIELSNVKIIETEEGTTATAALALRLEPFMCHVSAVNRLAWRPTEKCESNQSLRWLTSCGDDNCVRVFNFKF	failed
MSEPHRDTKIGQVLMNRYQLTELIGKGSMGRVYRAEDILLGGVPVAVKFLSQTLLNDRMKTRFAQEARAGALLGQKSMHVVRVLDYGMNNEEIPFYVMEFLEGENLSDLLLEEPLPLSRFLRIARHMCLGLQVAHEGIIIEGQKCPIIHRDIKPSNVLVIQDGTMGELAKLLDFGIAKFLGDVPEKGQTSSFMGTLAYCSPEQIEGRELDHRSDIYSLGITMYELLTGKMPIQAESHSIGSWFKAHHFQKPIPFNVASPGLHLPPALEELIMACMAKSPSDRPQNVAEIIKVLTALEDQFGSTRVTQPGVEVGAKVSQPLERQSQPPVALATVEEVCWQSVWPADKPVAEIVFPMPLYAQRESAASLWVMLPRSEIDRRMLNLRYNQFLFTTSPHPMILWITAIYDPQQGPRWLPCYLDMKLPRNQELCLLLSETGYYPLLFFSLEDPQHCINVRTFTIATFQRQLLRDWLQTSKNLPSSAPAVVSRNLLKAEFENYKPQILAKLENVKMATVID	failed
